Source: US20190177414A1

Assays:
[1] = molecular target: CTLA4-mFc fusion protein (human); assay: competitive ELISA; competitor B7-1-hFc coated 1 ug/ml; CTLA4-mFc 0.3 ug/ml; antibody dilution 1:3 from 3 ug/ml; replicate 2
[2] = molecular target: CTLA4-mFc fusion protein (human); assay: competitive ELISA; competitor B7-1-hFc coated 1 ug/ml; CTLA4-mFc 0.3 ug/ml; antibody dilution 1:9 from 3 ug/ml; replicate 1
[3] = molecular target: CTLA4-mFc fusion protein (human); assay: competitive ELISA; competitor B7-1-hFc coated 1 ug/ml; CTLA4-mFc 0.3 ug/ml; antibody dilution 1:27 from 3 ug/ml; replicate 1
[4] = molecular target: CTLA4-mFc fusion protein (human); assay: competitive ELISA; competitor B7-1-hFc coated 1 ug/ml; CTLA4-mFc 0.3 ug/ml; antibody dilution 1:81 from 3 ug/ml; replicate 2
[5] = molecular target: CTLA4-mFc fusion protein (human); assay: competitive ELISA; competitor B7-1-hFc coated 1 ug/ml; CTLA4-mFc 0.3 ug/ml
[6] = molecular target: CTLA4-mFc fusion protein (human); assay: competitive ELISA; competitor B7-1-hFc coated 1 ug/ml; CTLA4-mFc 0.3 ug/ml; antibody 0 (no antibody); replicate 2
[7] = molecular target: CTLA4-mFc fusion protein (human); assay: competitive ELISA; competitor B7-1-hFc coated 1 ug/ml; CTLA4-mFc 0.3 ug/ml; antibody dilution 1:729 from 3 ug/ml; replicate 2
[8] = molecular target: CTLA4-mFc fusion protein (human); assay: competitive ELISA; competitor B7-1-hFc coated 1 ug/ml; CTLA4-mFc 0.3 ug/ml; antibody dilution 1:3 from 3 ug/ml; replicate 1
[9] = molecular target: CTLA4-mFc fusion protein (human); assay: competitive ELISA; competitor B7-1-hFc coated 1 ug/ml; CTLA4-mFc 0.3 ug/ml; antibody 3 ug/ml; replicate 2
[10] = molecular target: CTLA4-mFc fusion protein (human); assay: competitive ELISA; competitor B7-1-hFc coated 1 ug/ml; CTLA4-mFc 0.3 ug/ml; antibody dilution 1:81 from 3 ug/ml; replicate 1
[11] = molecular target: CTLA4-mFc fusion protein (human); assay: competitive ELISA; competitor B7-1-hFc coated 1 ug/ml; CTLA4-mFc 0.3 ug/ml; antibody 3 ug/ml; replicate 1
[12] = molecular target: CTLA4-mFc fusion protein (human); assay: competitive ELISA; competitor B7-1-hFc coated 1 ug/ml; CTLA4-mFc 0.3 ug/ml; antibody 0 (no antibody); replicate 1
[13] = molecular target: CTLA4-mFc fusion protein (human); assay: competitive ELISA; competitor B7-1-hFc coated 1 ug/ml; CTLA4-mFc 0.3 ug/ml; antibody dilution 1:729 from 3 ug/ml; replicate 1
[14] = molecular target: CTLA4-mFc fusion protein (human); assay: competitive ELISA; competitor B7-1-hFc coated 1 ug/ml; CTLA4-mFc 0.3 ug/ml; antibody dilution 1:243 from 3 ug/ml; replicate 1
[15] = molecular target: CTLA4-mFc fusion protein (human); assay: competitive ELISA; competitor B7-1-hFc coated 1 ug/ml; CTLA4-mFc 0.3 ug/ml; antibody dilution 1:243 from 3 ug/ml; replicate 2
[16] = molecular target: CTLA4-mFc fusion protein (human); assay: competitive ELISA; competitor B7-1-hFc coated 1 ug/ml; CTLA4-mFc 0.3 ug/ml; antibody dilution 1:27 from 3 ug/ml; replicate 2
[17] = molecular target: CTLA4-mFc fusion protein (human); assay: competitive ELISA; competitor B7-1-hFc coated 1 ug/ml; CTLA4-mFc 0.3 ug/ml; antibody dilution 1:9 from 3 ug/ml; replicate 2

Chain of CTLA4-mFc fusion protein (human) (chain, as listed by the source limits assumed): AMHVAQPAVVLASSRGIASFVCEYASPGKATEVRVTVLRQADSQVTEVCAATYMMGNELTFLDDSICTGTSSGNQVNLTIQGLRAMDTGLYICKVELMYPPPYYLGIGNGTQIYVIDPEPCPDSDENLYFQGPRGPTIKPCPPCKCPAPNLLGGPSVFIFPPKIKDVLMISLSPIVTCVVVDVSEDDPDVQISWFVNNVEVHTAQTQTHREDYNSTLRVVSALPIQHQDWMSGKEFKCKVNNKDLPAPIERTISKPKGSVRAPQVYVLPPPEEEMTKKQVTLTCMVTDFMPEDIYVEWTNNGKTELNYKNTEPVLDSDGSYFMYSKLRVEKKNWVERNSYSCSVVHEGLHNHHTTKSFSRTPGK

absorbance at 450 nm [1]: 0.133
absorbance at 450 nm [2]: 0.351
absorbance at 450 nm [3]: 0.442
absorbance at 450 nm [4]: 0.663
EC50 [5]: 1.12 nM
absorbance at 450 nm [6]: 0.732
absorbance at 450 nm [7]: 0.692
absorbance at 450 nm [8]: 0.144
absorbance at 450 nm [9]: 0.14
absorbance at 450 nm [10]: 0.572
absorbance at 450 nm [11]: 0.147
absorbance at 450 nm [12]: 0.888
absorbance at 450 nm [13]: 0.726
absorbance at 450 nm [14]: 0.556
absorbance at 450 nm [15]: 0.554
absorbance at 450 nm [16]: 0.365
absorbance at 450 nm [17]: 0.312
Substance: control antibody 10D1 (anti-CTLA4 antibody)
